Laboratory results from publication PMC12708648 (2025).

T1: CP-GST (rice stripe virus (RSV), UniProt P68559 1-322)
T1 chain: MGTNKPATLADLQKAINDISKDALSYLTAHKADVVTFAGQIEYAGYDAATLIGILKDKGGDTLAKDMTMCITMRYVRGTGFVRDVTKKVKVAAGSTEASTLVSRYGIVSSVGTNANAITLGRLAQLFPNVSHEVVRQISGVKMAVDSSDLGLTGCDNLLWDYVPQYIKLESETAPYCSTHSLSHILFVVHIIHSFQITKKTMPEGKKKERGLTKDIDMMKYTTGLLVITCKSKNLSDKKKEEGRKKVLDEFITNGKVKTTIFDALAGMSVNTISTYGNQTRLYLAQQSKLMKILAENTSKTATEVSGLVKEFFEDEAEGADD

T2: NS3-GST (rice stripe virus (RSV))
T2 chain: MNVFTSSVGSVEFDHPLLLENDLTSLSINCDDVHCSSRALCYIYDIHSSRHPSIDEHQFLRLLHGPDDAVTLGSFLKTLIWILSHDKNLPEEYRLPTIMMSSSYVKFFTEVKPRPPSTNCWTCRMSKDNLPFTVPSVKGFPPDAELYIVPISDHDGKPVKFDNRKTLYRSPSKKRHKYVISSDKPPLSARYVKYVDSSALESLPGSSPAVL


Key:
CP-GST = target: T1, CP-GST; test: MST
NS3-GST = target: T2, NS3-GST; test: MST

Row | Binder | Kd (CP-GST) [nM] | Kd (NS3-GST) [nM]
1 | OsVIRK1N-His (domain or fragment, labelling dye (NanoTemper) in the MST assay) MAPPPPSPPCRPRVKPERALLCFSLLLLLTATTANASITDCPTTSSTNSSHVDDGAFGANLRALLSSLSAAAAASSSGFAENATGAAPDTAYGLAQCRGGIVGGGNGTSCRSCLDDSVRDAAKACPGEKSAVIISDYCLVRYSNASFAGAADERTVKLWWNTDNATQPERFKSLLGTLMGNLTDAAARASSPLMFAAGETDLPPFTKIYGMAQCTRDLAAGDCYRCLVGAVNNIPKCCDGKQGGQVITRSCSIRFEVYPFFDA | 1300 | 5200
2 | OsVIRK1C-His (domain or fragment, labelling dye (NanoTemper) in the MST assay) LCKRNRKPHKHMMIGSVDLGDEDEMRGSESLLYDLSTLRAATANFSEENKLGEGGFGPVYKGTLQNGQEIAVKRLSATSHQGQLEMKNEVVLVAKLQHKNLVRLLGCCIEEREKILVYEFLCNKSLDTILFDTSRQQDLNWEQRFKIIEGIGRGLLYLHEDSRLKIIHRDLKASNILLDVDMNPKISDFGLAKLFNMEASVANTSRIAGTYGYMAPEYALHGIFSAKSDVFSYGVLLLEIVTGRRNTCLHDSEDLLAFVWRHWSRGGAGELLDGCPAAGRRPQELLRCIHVGLLCVQEDPQLRPGMAAVVVMLNSRSVTLPAPSAPAFVSASRGIGGSPPPAAAAGDAPARSTDHEVPTAAR | 704 | 4250
